The text below walks through data of patent US20140072553A1 (MORPHOTEK, published 2014).

The chains are these.
B1: human anti-SEB monoclonal antibody 79G9 (antibody, V domains shown)
VH: EVQLEESGAGLLKPSETLSLTCAVYGGSFSGYYWSWIRQAPGKGLEWIGEIDHSGTTNYNPSLKSRVTISVETSKNQFSLRLSSVTAADSAVYYCASSGYCSHGLCPQEDWGQGTLVTVSS
VL: DIELTQSPSFLSASVGDRVAITCRASQGISNYLAWYQQKPGKAPKLLIYAAFVLQSGVPSRFSGSGSGTEFTLTISNLQPEDFATYYCQQLNSYPRAFGPGTKVDIKR
B2: human anti-SEB monoclonal antibody F10 (antibody, V domains shown)
VH: QVQLVQSGGGLVKPGGSLRLSCAASGFTFSSYSMNWVRQAPGKGLEWVSSISSSSSYIYYADSVKGRFTISRDNAKNSLYLQMNSLRAEDTAVYYCARGGVAGRTEIYYYYYGMDVWGQGTTVTVSS
VL: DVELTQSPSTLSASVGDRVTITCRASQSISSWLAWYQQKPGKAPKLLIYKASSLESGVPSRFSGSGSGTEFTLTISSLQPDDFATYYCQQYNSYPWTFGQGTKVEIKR
B3: human anti-SEB monoclonal antibody 100C9 (antibody, V domains shown)
VH: EVQLVESGGGLVQPGGSLRLSCSASGFTFSSYWMSWVRQAPGKGLEWVANIIQDGSEKYYADSVKGRLTISRDNAKNSLYLQMNSLRVDDTAVYYCARGYEGCSATRCYLYYFDYWGPGTLVTVSS
VL: SYVLTQPPSVSVSPGQTARITCSGDALPKQYTYWYQQKPGQAPVVVIYKDSERPSGIPERFSGSSSGTTVTVTISGVQAEDEADYYCQSADSSGTSLVFGGGTKLTVLG

The assay deals with tetanus toxoid (UniProt P04958 2-1315). Briefly: hybridoma screening ELISA. Background: ELISA stands for enzyme-linked immunosorbent assay.
Chain of tetanus toxoid (P04958 2-457 limits assumed, chain 1 of 2): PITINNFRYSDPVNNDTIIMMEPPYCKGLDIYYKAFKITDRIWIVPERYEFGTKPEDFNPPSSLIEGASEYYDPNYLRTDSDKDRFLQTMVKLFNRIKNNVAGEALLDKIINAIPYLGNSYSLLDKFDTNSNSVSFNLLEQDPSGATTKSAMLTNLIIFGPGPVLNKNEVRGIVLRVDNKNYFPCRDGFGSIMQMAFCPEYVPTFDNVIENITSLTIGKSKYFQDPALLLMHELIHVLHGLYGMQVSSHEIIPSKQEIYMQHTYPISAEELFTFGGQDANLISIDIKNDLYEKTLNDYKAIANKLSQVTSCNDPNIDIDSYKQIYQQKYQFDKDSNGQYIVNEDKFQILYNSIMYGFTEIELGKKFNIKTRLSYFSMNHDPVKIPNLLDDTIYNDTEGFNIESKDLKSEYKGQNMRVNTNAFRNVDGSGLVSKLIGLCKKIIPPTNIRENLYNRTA
Chain of tetanus toxoid (P04958 458-1315 limits assumed, chain 2 of 2): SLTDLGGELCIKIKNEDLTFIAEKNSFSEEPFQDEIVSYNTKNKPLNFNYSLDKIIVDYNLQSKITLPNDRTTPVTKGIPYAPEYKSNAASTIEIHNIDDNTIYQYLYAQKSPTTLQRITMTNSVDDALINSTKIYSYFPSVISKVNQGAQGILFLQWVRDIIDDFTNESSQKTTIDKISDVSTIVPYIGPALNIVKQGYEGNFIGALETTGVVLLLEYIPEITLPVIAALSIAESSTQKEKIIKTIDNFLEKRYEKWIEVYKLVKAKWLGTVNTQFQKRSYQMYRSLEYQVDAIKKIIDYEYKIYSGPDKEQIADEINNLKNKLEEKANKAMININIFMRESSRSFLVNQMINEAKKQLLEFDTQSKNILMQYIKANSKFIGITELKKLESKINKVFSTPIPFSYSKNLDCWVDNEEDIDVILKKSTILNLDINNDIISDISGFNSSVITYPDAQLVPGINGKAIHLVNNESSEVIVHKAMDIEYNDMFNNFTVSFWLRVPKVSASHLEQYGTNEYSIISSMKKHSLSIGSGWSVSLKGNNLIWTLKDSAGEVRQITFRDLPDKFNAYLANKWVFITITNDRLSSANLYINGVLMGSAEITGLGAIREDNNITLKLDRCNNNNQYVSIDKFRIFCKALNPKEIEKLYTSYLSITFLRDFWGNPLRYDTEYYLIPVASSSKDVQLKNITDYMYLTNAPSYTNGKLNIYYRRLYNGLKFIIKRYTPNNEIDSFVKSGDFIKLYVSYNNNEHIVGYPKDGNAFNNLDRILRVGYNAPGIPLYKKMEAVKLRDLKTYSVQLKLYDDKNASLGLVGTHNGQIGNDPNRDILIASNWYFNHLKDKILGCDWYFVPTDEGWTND
B1: the binding result is recorded as “no binding”. Under B2 stands “no binding”. For B3, the binding result is listed as “no binding”.
